Test results as given in patent US20060286611A1, “Antibodies against biotinylated histones and related proteins and assays related thereto” (Board of Regents of University of Nebraska, priority 2005, published 2006).
Non-standard residues stand in square brackets, D forms with d. No end group written: not given here. *: point of attachment. Me2 = dimethyl-lysine (dimethyl-epsilon-NH2-L-lysine); pS = N[C@@H](COP(=O)(O)O)C(=O)O; For = O=C*

How the values were obtained:
Assay type in all cases: biochemical
biotinidase [1] = molecular target: T1, biotinidase (Homo sapiens, UniProt P43251); test: Enzymatic biotinylation of synthetic histone H4 peptides by biotinidase; conditions: for enzymatic biotinylation by biotinidase, peptide-bound biotin probed with streptavidin peroxidase: human plasma as source of biotinidase, biocytin, 37° C., 45 min
T1 construct: 60 μL of human plasma; from tissue; host or cells: human plasma
T1 sequence (P43251 22-523): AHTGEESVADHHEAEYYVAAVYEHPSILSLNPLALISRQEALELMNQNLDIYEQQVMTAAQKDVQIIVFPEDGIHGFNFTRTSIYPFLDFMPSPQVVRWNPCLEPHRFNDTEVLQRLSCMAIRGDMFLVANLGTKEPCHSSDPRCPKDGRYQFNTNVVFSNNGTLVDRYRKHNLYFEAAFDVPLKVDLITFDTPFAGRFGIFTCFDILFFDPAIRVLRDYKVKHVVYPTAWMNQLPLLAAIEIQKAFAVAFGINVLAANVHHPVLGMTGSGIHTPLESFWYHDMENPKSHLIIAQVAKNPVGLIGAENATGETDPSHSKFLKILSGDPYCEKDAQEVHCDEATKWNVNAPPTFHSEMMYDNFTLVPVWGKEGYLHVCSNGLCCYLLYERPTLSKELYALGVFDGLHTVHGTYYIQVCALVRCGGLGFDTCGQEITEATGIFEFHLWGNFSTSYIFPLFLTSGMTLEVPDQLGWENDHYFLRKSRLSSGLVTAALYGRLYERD
Source text: It has been proposed that the following catalytic sequence leads to biotinylation in histones (Hymes et al., 1995; Hyme and Wolf, 1999). First, biocytin is cleaved by biotinidase to form an intermediate, cysteine-bound biotin. Second, the biotinyl moiety from the cysteine residue is transferred to the ε-amino group of lysines in histones. In the present study, synthetic peptides were biotinylated enzymatically using human plasma (as source of biotinidase) and biocytin (as source of biotin) as described previously (Hymes et al., 1995). Peptide concentrations in stock solutions were adjusted to 50 mg/L; 20 μL of peptide solution was mixed with 1.88 mL of 50 mmol/L Tris (pH 8.0), 40 μL of 0.75 mmol/L biocytin and 60 μL of human plasma. Samples were incubated […] at 37° C. for 45 min and stored at −70° C. unless stated otherwise.
After enzymatic biotinylation, peptides were electrophoresed using 16% tricine polyacrylamide gels according to the manufacturer's instructions (Invitrogen, Carlsbad, Calif.). Peptides were electroblotted onto polyvinylidene fluoride membranes (Millipore, Bedford, Mass.), which were blocked with 50 mL of 30 g/L BSA. Peptide-bound biotin was probed with streptavidin peroxidase (Stanley et al., 2001).

biotinidase [2] = molecular target: T1, biotinidase; test: Enzymatic biotinylation of synthetic histone H3 peptides by biotinidase; conditions: biotinidase and biocytin, 45 min
biotinidase [3] = molecular target: T1, biotinidase; test: Enzymatic biotinylation of synthetic histone H2A and H2A.X peptides by biotinidase; conditions: human plasma as source of biotinidase, 75 μmol/L biocytin, pH 8.0, 37° C., up to 45 minutes
Source text: In Examples described above, the inventors developed a procedure to identify amino acid residues in histones that are targets for biotinylation. […] Amino acid substitutions (e.g., lysine-to-alanine substitutions) in synthetic peptides are used to corroborate identification of biotinylation sites. In addition, amino acid modifications (e.g., acetylation of lysines) in peptides can be used to investigate the cross-talk between biotinylation of histones and other known modifications of histones.
Peptides from both the N- and C-terminal regions of histone H2A and H2A.X were included in the analysis of biotinylation sites. […] Reactions were quenched by adding an equal volume of Tricine gel loading buffer (Invitrogen, Carlsbad, Calif.).

histone H1 = test: Proteolytic digestion of histone H1
Procedure: Here the inventors determined whether biotin release is mediated by proteolytic digestion of histones. One milligram of histone H1 was dissolved in 100 μl of 20 mM sodium acetate [pH 4.5]. 0.4 microliters of histone solution was mixed with 7.1 μl of nuclear extract containing 20 μg of protein; samples were incubated at 37° C. for 20 min. The following controls were tested: histones incubated without nuclear extract, and histones incubated with 2.5 microliter trypsin [with or without 20 mM of the trypsin inhibitor, phenylmethylsulphonylfluoride (PMSF)]. Reactions were terminated by heating the samples with equal volume of loading buffer at 72° C. for 10 min. Proteins were resolved using 4-12% Bis-Tris gels (Invitrogen, Carlsbad, Calif.) as described (Stanley et al., 2001) and were visualized using coomassie blue.

Compound	enzymatic biotinylation by biotinidase, peptide-bound biotin probed with streptavidin peroxidase (biotinidase [1])	also measured
6: histone H4 positions 6-15, Ac-K in position 12 (Ac-GGKGLGK(Ac)GGA) [Peptide 6]	decreased biotinylation of the peptide	
5: histone H4 positions 6-15, Ac-K in position 8 (Ac-GGK(Ac)GLGKGGA) [Peptide 5]	barely detectable	
19: histone H4 positions 6-15, glutamine in positions 8 and 12 (Ac-GGQGLGQGGA) [Peptide 19]	no enzymatic biotinylation was detectable	
NC(=O)NCCC[C@H](N)C(=O)O [citrulline]		enzymatic biotinylation by biotinidase, peptide-bound biotin probed with streptavidin-peroxidase (biotinidase [2]): relatively poor target for biotinylation; enzymatic biotinylation by biotinidase, peptide-bound biotin probed with streptavidin peroxidase (biotinidase [3]): good targets for biotinylation
3: histone H4 positions 6-15, alanine in position 12 (Ac-GGKGLGAGGA) [Peptide 3]	decreased substantially	
8: histone H4 positions 6-15, Dme-K in position 12 (Ac-GGKGLGK(Me2)GGA) [Peptide 8]	decreased substantially	
7: histone H4 positions 6-15, Dme-K in position 8 (Ac-GGK(Me2)GLGKGGA) [Peptide 7]	decreased substantially	
SGRGKGGKGLGKGGAKRHR [SEQ ID NO:7, N-terminal 19 amino acids of histone H4]		time at which abundance of biotinylated peptide reached a plateau (biotinidase [1]; incubated with plasma and biocytin for 0 to 60 min): 20 to 60 min
13: histone H4 positions 6-15, arginine in position 12 (Ac-GGKGLGRGGA) [Peptide 13]	decreased moderately	
18: histone H4 positions 6-15, glutamine in position 12 (Ac-GGKGLGQGGA) [Peptide 18]	decreased compared to the native peptide	
17: histone H4 positions 6-15, glutamine in position 8 (Ac-GGQGLGKGGA) [Peptide 17]	decreased compared to the native peptide	
trypsin		degradation of histone H1 by gel electrophoresis (histone H1; 37° C. for 20 min): degraded completely
14: histone H4 positions 6-15, arginine in positions 8 and 12 (Ac-GGRGLGRGGA) [Peptide 14]	not detected	
9: histone H4 positions 6-15, For-K in position 12 (Ac-GGKGLGK(For)GGA) [Peptide 9]	decreased compared to the native peptide	
16: histone H4 positions 6-15, glutamate in position 12 [Peptide 16]	not detectable	
12: histone H4 positions 6-15, arginine in position 8 (Ac-GGRGLGKGGA) [Peptide 12]	decreased substantially	
4: histone H4 positions 6-15, alanine in positions 8 and 12 (Ac-GGAGLGAGGA) [Peptide 4]	did not undergo biotinylation	
N18-25: histone H3 amino acids 18-25, including K18 and K23 (RKQLATKA; listed as Homo sapiens) [Peptide N18-25]		enzymatic biotinylation by biotinidase, peptide-bound biotin probed with streptavidin-peroxidase (biotinidase [2]): better substrate for biotinylation
K23A18-25: histone H3 amino acids 18-25, K23 substituted with alanine (KQLATAAA) [Peptide K23A18-25]		enzymatic biotinylation by biotinidase, peptide-bound biotin probed with streptavidin-peroxidase (biotinidase [2]): heavily biotinylated
15: histone H4 positions 6-15, glutamate in position 8 [Peptide 15]	not detectable	
O=S(=O)(F)Cc1ccccc1 [PMSF, phenylmethylsulphonylfluoride]		degradation of histone H1 by trypsin in the presence of the inhibitor (histone H1; 20 mM): prevented
2: histone H4 positions 6-15, alanine in position 8 (Ac-GGAGLGKGGA) [Peptide 2]	decreased substantially	
GGKGLGKGGA (Ac-GGKGLGKGGA) [Peptide 1, amino acids 6 through 15 in histone H4, native control]	efficiently biotinylated	
TARKS(p)TGG (TARK[pS]TGG) [S10S(p)6-13, histone H3 6-13, phosphorylation of S10]		enzymatic biotinylation by biotinidase, peptide-bound biotin probed with streptavidin-peroxidase (biotinidase [2]): poor target for biotinylation
K18A16-23: histone H3 amino acids 16 to 23, K18 substituted with alanine (PRAQLATK) [Peptide K18A16-23]		enzymatic biotinylation by biotinidase, peptide-bound biotin probed with streptavidin-peroxidase (biotinidase [2]): weak
20: histone H4 positions 6-15, D-lysine in position 12 (Ac-GGKGLG[dK]GGA) [Peptide 20]	decreased only moderately	
